Numbered stars: 1 amine (or outer) side, 2 acyl side, 3 side chain; on linkers, the order of the positions; unused ones are H or OH. * marks the point of attachment. C20 diacid = O=C(O)CCCCCCCCCCCCCCCCCCC(=O)*; C18 diacid = O=C(O)CCCCCCCCCCCCCCCCC(=O)*; γGlu = O=C(O)[C@H](CCC(=O)[*:2])N[*:1]
T1: human amylin receptor (amylin 3(a) receptor: human calcitonin receptor with RAMP-3) (human, UniProt P30988 25-474; O60896 24-148, limits assumed)
T1 construct: whole, on cells; Assay V: membranes of the Amylin 3(a)/CRE-luc BHK cells on SPA beads; also called hAmylin-R
T1 sequence (looked up) 1: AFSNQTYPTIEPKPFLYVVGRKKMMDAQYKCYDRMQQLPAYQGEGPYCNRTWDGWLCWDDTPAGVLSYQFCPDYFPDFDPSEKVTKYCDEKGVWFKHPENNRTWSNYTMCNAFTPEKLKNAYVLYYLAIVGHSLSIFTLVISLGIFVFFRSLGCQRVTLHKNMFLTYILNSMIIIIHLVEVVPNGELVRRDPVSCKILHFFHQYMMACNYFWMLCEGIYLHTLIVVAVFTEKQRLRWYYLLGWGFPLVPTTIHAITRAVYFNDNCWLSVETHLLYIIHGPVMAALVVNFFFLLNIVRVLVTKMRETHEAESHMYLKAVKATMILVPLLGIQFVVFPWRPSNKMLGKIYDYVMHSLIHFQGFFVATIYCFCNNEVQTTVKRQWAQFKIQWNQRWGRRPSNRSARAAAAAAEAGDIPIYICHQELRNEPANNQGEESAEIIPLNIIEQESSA
T1 sequence (looked up) 2: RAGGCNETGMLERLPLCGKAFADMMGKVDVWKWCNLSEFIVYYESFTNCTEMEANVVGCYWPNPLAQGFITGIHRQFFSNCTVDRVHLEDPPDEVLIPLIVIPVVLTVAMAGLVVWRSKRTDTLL

T2: human calcitonin receptor (human, UniProt P30988 25-474)
T2 construct: whole, on cells; Assay VII: membranes on SPA beads; also called hCT-R; hCTR
T2 sequence (looked up): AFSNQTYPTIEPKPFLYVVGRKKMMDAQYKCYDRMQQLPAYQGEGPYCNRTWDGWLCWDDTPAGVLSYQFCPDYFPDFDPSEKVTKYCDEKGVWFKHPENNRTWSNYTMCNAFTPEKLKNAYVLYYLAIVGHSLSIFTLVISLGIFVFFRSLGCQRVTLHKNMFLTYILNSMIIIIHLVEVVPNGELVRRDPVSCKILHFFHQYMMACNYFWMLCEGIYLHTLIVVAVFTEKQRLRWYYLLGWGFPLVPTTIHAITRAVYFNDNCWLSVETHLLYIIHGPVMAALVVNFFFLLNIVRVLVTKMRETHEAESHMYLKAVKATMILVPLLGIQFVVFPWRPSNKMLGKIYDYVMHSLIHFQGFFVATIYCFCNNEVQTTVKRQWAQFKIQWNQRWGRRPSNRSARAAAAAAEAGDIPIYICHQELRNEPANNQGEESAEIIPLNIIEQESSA


What was measured:
[1] = target: T1, human amylin receptor (amylin 3(a) …); test: SPA competition vs 125I-rat amylin, membranes with human CTR + RAMP-3 (Assay V)
[2] = target: T2, human calcitonin receptor; test: SPA competition vs 125I-calcitonin, membranes with human CTR (Assay VII)
In short: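 SPA competition on membranes from BHK tk'ts 13 cells stably expressing human calcitonin receptor plus CRE-luciferase reporter; membranes 35 ng/μL final with 0.05 mg/well beads.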

Binder	IC50 [1]	IC50 [2]
{C18 diacid-γGlu}-ASGLSTAALGRLSQELHELQTYPRTETGSGTY-NH2 (SMILES CC(C)C[C@H](NC(=O)CNC(=O)[C@H](CO)NC(=O)[C@H](C)NC(=O)CC[C@H](NC(=O)CCCCCCCCCCCCCCCCC(=O)O)C(=O)O)C(=O)N[C@@H](CO)C(=O)N[C@H](C(=O)N[C@@H](C)C(=O)N[C@@H](C)C(=O)N[C@@H](CC(C)C)C(=O)NCC(=O)N[C@@H](CCCNC(=N)N)C(=O)N[C@@H](CC(C)C)C(=O)N[C@@H](CO)C(=O)N[C@@H](CCC(N)=O)C(=O)N[C@@H](CCC(=O)O)C(=O)N[C@@H](CC(C)C)C(=O)N[C@@H](Cc1c[nH]cn1)C(=O)N[C@@H](CCC(=O)O)C(=O)N[C@@H](CC(C)C)C(=O)N[C@@H](CCC(N)=O)C(=O)N[C@H](C(=O)N[C@@H](Cc1ccc(O)cc1)C(=O)N1CCC[C@H]1C(=O)N[C@@H](CCCNC(=N)N)C(=O)N[C@H](C(=O)N[C@@H](CCC(=O)O)C(=O)N[C@H](C(=O)NCC(=O)N[C@@H](CO)C(=O)NCC(=O)N[C@H](C(=O)N[C@@H](Cc1ccc(O)cc1)C(N)=O)[C@@H](C)O)[C@@H](C)O)[C@@H](C)O)[C@@H](C)O)[C@@H](C)O, mimylin derivative; des1 = residue 1 deleted; also called Ex. #110; 110) [[N-terminal(C18 diacid-gGlu), des1, 4G, 15Q, 21Q, 23Y, 30S, 31G, 32T, 33Y]mimylin]	0.122 nM	0.057 nM
{C20 diacid-γGlu}-ASGLSTAALGRLSQELHELQTYPRTETGSQTY-NH2 (SMILES CC(C)C[C@H](NC(=O)CNC(=O)[C@H](CO)NC(=O)[C@H](C)NC(=O)CC[C@H](NC(=O)CCCCCCCCCCCCCCCCCCC(=O)O)C(=O)O)C(=O)N[C@@H](CO)C(=O)N[C@H](C(=O)N[C@@H](C)C(=O)N[C@@H](C)C(=O)N[C@@H](CC(C)C)C(=O)NCC(=O)N[C@@H](CCCNC(=N)N)C(=O)N[C@@H](CC(C)C)C(=O)N[C@@H](CO)C(=O)N[C@@H](CCC(N)=O)C(=O)N[C@@H](CCC(=O)O)C(=O)N[C@@H](CC(C)C)C(=O)N[C@@H](Cc1c[nH]cn1)C(=O)N[C@@H](CCC(=O)O)C(=O)N[C@@H](CC(C)C)C(=O)N[C@@H](CCC(N)=O)C(=O)N[C@H](C(=O)N[C@@H](Cc1ccc(O)cc1)C(=O)N1CCC[C@H]1C(=O)N[C@@H](CCCNC(=N)N)C(=O)N[C@H](C(=O)N[C@@H](CCC(=O)O)C(=O)N[C@H](C(=O)NCC(=O)N[C@@H](CO)C(=O)N[C@@H](CCC(N)=O)C(=O)N[C@H](C(=O)N[C@@H](Cc1ccc(O)cc1)C(N)=O)[C@@H](C)O)[C@@H](C)O)[C@@H](C)O)[C@@H](C)O)[C@@H](C)O, mimylin derivative; des1 = residue 1 deleted) [[N-terminal(C20 diacid-gGlu), des1, 4G, 15Q, 21Q, 23Y, 30S, 31Q, 32T, 33Y]mimylin]	0.131 nM	0.051 nM
{C20 diacid-γGlu}-ASGLSTAVLGKLSQELHELQTYPPTETGSGTY-NH2 (SMILES CC(C)C[C@H](NC(=O)CNC(=O)[C@H](CO)NC(=O)[C@H](C)NC(=O)CC[C@H](NC(=O)CCCCCCCCCCCCCCCCCCC(=O)O)C(=O)O)C(=O)N[C@@H](CO)C(=O)N[C@H](C(=O)N[C@@H](C)C(=O)N[C@H](C(=O)N[C@@H](CC(C)C)C(=O)NCC(=O)N[C@@H](CCCCN)C(=O)N[C@@H](CC(C)C)C(=O)N[C@@H](CO)C(=O)N[C@@H](CCC(N)=O)C(=O)N[C@@H](CCC(=O)O)C(=O)N[C@@H](CC(C)C)C(=O)N[C@@H](Cc1c[nH]cn1)C(=O)N[C@@H](CCC(=O)O)C(=O)N[C@@H](CC(C)C)C(=O)N[C@@H](CCC(N)=O)C(=O)N[C@H](C(=O)N[C@@H](Cc1ccc(O)cc1)C(=O)N1CCC[C@H]1C(=O)N1CCC[C@H]1C(=O)N[C@H](C(=O)N[C@@H](CCC(=O)O)C(=O)N[C@H](C(=O)NCC(=O)N[C@@H](CO)C(=O)NCC(=O)N[C@H](C(=O)N[C@@H](Cc1ccc(O)cc1)C(N)=O)[C@@H](C)O)[C@@H](C)O)[C@@H](C)O)[C@@H](C)O)C(C)C)[C@@H](C)O, mimylin derivative; des1 = residue 1 deleted) [[N-terminal(C20 diacid-gGlu), des1, 4G, 9V, 12K, 15Q, 21Q, 23Y, 25P, 30S, 31G, 32T, 33Y]mimylin]	0.72 nM	0.651 nM
{C20 diacid-γGlu}-ASGLSTAALGRLSQELHELQTYPHTETGSGTY-NH2 (SMILES CC(C)C[C@H](NC(=O)CNC(=O)[C@H](CO)NC(=O)[C@H](C)NC(=O)CC[C@H](NC(=O)CCCCCCCCCCCCCCCCCCC(=O)O)C(=O)O)C(=O)N[C@@H](CO)C(=O)N[C@H](C(=O)N[C@@H](C)C(=O)N[C@@H](C)C(=O)N[C@@H](CC(C)C)C(=O)NCC(=O)N[C@@H](CCCNC(=N)N)C(=O)N[C@@H](CC(C)C)C(=O)N[C@@H](CO)C(=O)N[C@@H](CCC(N)=O)C(=O)N[C@@H](CCC(=O)O)C(=O)N[C@@H](CC(C)C)C(=O)N[C@@H](Cc1c[nH]cn1)C(=O)N[C@@H](CCC(=O)O)C(=O)N[C@@H](CC(C)C)C(=O)N[C@@H](CCC(N)=O)C(=O)N[C@H](C(=O)N[C@@H](Cc1ccc(O)cc1)C(=O)N1CCC[C@H]1C(=O)N[C@@H](Cc1c[nH]cn1)C(=O)N[C@H](C(=O)N[C@@H](CCC(=O)O)C(=O)N[C@H](C(=O)NCC(=O)N[C@@H](CO)C(=O)NCC(=O)N[C@H](C(=O)N[C@@H](Cc1ccc(O)cc1)C(N)=O)[C@@H](C)O)[C@@H](C)O)[C@@H](C)O)[C@@H](C)O)[C@@H](C)O, mimylin derivative; des1 = residue 1 deleted) [[N-terminal(C20 diacid-gGlu), des1, 4G, 15Q, 21Q, 23Y, 25H, 30S, 31G, 32T, 33Y]mimylin]	0.166 nM	0.15 nM
{C20 diacid-γGlu}-ASGLSTATLGRLSQELHELQTYPPTETGSGTY-NH2 (SMILES CC(C)C[C@H](NC(=O)CNC(=O)[C@H](CO)NC(=O)[C@H](C)NC(=O)CC[C@H](NC(=O)CCCCCCCCCCCCCCCCCCC(=O)O)C(=O)O)C(=O)N[C@@H](CO)C(=O)N[C@H](C(=O)N[C@@H](C)C(=O)N[C@H](C(=O)N[C@@H](CC(C)C)C(=O)NCC(=O)N[C@@H](CCCNC(=N)N)C(=O)N[C@@H](CC(C)C)C(=O)N[C@@H](CO)C(=O)N[C@@H](CCC(N)=O)C(=O)N[C@@H](CCC(=O)O)C(=O)N[C@@H](CC(C)C)C(=O)N[C@@H](Cc1c[nH]cn1)C(=O)N[C@@H](CCC(=O)O)C(=O)N[C@@H](CC(C)C)C(=O)N[C@@H](CCC(N)=O)C(=O)N[C@H](C(=O)N[C@@H](Cc1ccc(O)cc1)C(=O)N1CCC[C@H]1C(=O)N1CCC[C@H]1C(=O)N[C@H](C(=O)N[C@@H](CCC(=O)O)C(=O)N[C@H](C(=O)NCC(=O)N[C@@H](CO)C(=O)NCC(=O)N[C@H](C(=O)N[C@@H](Cc1ccc(O)cc1)C(N)=O)[C@@H](C)O)[C@@H](C)O)[C@@H](C)O)[C@@H](C)O)[C@@H](C)O)[C@@H](C)O, mimylin derivative; des1 = residue 1 deleted) [[N-terminal(C20 diacid-gGlu), des1, 4G, 9T, 15Q, 21Q, 23Y, 25P, 30S, 31G, 32T, 33Y]mimylin]	0.216 nM	0.053 nM
{C20 diacid-γGlu}-ASGLSTLVLGRLSQELHELQTYPRTETGSQTY-NH2 (SMILES CC(C)C[C@H](NC(=O)CNC(=O)[C@H](CO)NC(=O)[C@H](C)NC(=O)CC[C@H](NC(=O)CCCCCCCCCCCCCCCCCCC(=O)O)C(=O)O)C(=O)N[C@@H](CO)C(=O)N[C@H](C(=O)N[C@@H](CC(C)C)C(=O)N[C@H](C(=O)N[C@@H](CC(C)C)C(=O)NCC(=O)N[C@@H](CCCNC(=N)N)C(=O)N[C@@H](CC(C)C)C(=O)N[C@@H](CO)C(=O)N[C@@H](CCC(N)=O)C(=O)N[C@@H](CCC(=O)O)C(=O)N[C@@H](CC(C)C)C(=O)N[C@@H](Cc1c[nH]cn1)C(=O)N[C@@H](CCC(=O)O)C(=O)N[C@@H](CC(C)C)C(=O)N[C@@H](CCC(N)=O)C(=O)N[C@H](C(=O)N[C@@H](Cc1ccc(O)cc1)C(=O)N1CCC[C@H]1C(=O)N[C@@H](CCCNC(=N)N)C(=O)N[C@H](C(=O)N[C@@H](CCC(=O)O)C(=O)N[C@H](C(=O)NCC(=O)N[C@@H](CO)C(=O)N[C@@H](CCC(N)=O)C(=O)N[C@H](C(=O)N[C@@H](Cc1ccc(O)cc1)C(N)=O)[C@@H](C)O)[C@@H](C)O)[C@@H](C)O)[C@@H](C)O)C(C)C)[C@@H](C)O, mimylin derivative; des1 = residue 1 deleted) [[N-terminal(C20 diacid-gGlu), des1, 4G, 8L, 9V, 15Q, 21Q, 23Y, 30S, 31Q, 32T, 33Y]mimylin]	0.225 nM	0.193 nM
{C20 diacid-γGlu}-ASGLSTAVLGRLSQELHELQTYPRTETGSQTY-NH2 (SMILES CC(C)C[C@H](NC(=O)CNC(=O)[C@H](CO)NC(=O)[C@H](C)NC(=O)CC[C@H](NC(=O)CCCCCCCCCCCCCCCCCCC(=O)O)C(=O)O)C(=O)N[C@@H](CO)C(=O)N[C@H](C(=O)N[C@@H](C)C(=O)N[C@H](C(=O)N[C@@H](CC(C)C)C(=O)NCC(=O)N[C@@H](CCCNC(=N)N)C(=O)N[C@@H](CC(C)C)C(=O)N[C@@H](CO)C(=O)N[C@@H](CCC(N)=O)C(=O)N[C@@H](CCC(=O)O)C(=O)N[C@@H](CC(C)C)C(=O)N[C@@H](Cc1c[nH]cn1)C(=O)N[C@@H](CCC(=O)O)C(=O)N[C@@H](CC(C)C)C(=O)N[C@@H](CCC(N)=O)C(=O)N[C@H](C(=O)N[C@@H](Cc1ccc(O)cc1)C(=O)N1CCC[C@H]1C(=O)N[C@@H](CCCNC(=N)N)C(=O)N[C@H](C(=O)N[C@@H](CCC(=O)O)C(=O)N[C@H](C(=O)NCC(=O)N[C@@H](CO)C(=O)N[C@@H](CCC(N)=O)C(=O)N[C@H](C(=O)N[C@@H](Cc1ccc(O)cc1)C(N)=O)[C@@H](C)O)[C@@H](C)O)[C@@H](C)O)[C@@H](C)O)C(C)C)[C@@H](C)O, mimylin derivative; des1 = residue 1 deleted) [[N-terminal(C20 diacid-gGlu), des1, 4G, 9V, 15Q, 21Q, 23Y, 30S, 31Q, 32T, 33Y]mimylin]	0.152 nM	0.067 nM
